For one substance, binding results are on record in PMC3799227.

For data set [1], the system named is BaeR-P (phosphorylated BaeR) (Salmonella enterica serovar Typhimurium). Kind of data set: EMSA.
In data set [2] the test system is BaeR (Salmonella enterica serovar Typhimurium). Description: EMSA. (In general: In EMSA bound probe runs differently from free probe, usually more slowly.)

Consider sodA promoter fragment A (wild type), for which the binding was 0.6 µM in data set [1] and 0.9 µM in data set [2].
